US20250188166A1 (BRIGHT PEAK THERAPEUTICS, published 2025)

How the values were obtained:
[1] = target: T1, IL-18R on HEK-Blue IL18R reporter cells (UniProt Q13478 19-541; O95256 20-599); test: cell-based or functional assay
T1 sequence (looked up) 1: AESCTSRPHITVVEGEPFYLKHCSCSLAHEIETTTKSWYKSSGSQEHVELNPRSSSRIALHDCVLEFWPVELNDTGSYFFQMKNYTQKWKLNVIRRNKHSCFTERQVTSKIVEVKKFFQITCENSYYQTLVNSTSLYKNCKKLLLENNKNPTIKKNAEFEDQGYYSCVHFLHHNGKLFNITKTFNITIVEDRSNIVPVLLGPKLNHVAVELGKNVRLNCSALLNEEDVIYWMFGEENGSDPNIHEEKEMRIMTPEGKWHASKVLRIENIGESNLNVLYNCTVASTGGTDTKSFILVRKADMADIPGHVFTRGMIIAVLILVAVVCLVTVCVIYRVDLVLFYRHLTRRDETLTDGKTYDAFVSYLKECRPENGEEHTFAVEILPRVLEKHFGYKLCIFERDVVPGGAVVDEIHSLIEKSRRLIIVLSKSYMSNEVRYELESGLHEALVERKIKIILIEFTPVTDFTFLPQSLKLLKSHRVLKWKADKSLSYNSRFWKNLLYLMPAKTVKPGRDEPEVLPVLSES
T1 sequence (looked up) 2: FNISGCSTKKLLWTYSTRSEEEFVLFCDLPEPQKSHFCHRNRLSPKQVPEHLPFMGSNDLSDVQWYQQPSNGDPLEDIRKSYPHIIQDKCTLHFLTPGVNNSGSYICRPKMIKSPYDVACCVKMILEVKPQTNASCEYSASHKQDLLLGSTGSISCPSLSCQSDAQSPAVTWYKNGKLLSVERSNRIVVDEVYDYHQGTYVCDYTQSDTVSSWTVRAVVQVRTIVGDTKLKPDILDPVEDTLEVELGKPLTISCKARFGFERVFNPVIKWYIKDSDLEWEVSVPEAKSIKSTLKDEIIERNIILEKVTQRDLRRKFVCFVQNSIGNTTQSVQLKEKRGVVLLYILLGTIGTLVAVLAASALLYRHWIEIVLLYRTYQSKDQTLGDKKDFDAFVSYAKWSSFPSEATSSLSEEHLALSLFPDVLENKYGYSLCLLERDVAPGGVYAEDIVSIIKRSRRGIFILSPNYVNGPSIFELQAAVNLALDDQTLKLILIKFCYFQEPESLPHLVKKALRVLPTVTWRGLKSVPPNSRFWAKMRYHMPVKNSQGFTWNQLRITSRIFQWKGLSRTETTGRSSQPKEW

[2] = target: T2, Biotinylated Recombinant Human PD-1/CD279-Fc Chimera (human, UniProt Q15116 25-167, biotinylated); test: ELISA; antibody coated, biotinylated human PD-1-Fc titrated
T2 construct: Bought (Biolegend #789406); also called recombinant biotinylated human PD-1
Experimental: (§1) The interaction of the unmodified antibodies and corresponding IL-18 immunocytokines with relevant immune cell associated antigen are measured by ELISA assay. For these studies, Corning high-binding half-area plates (Fisher Scientific, Reinach, Switzerland) are coated overnight at 4° C. with 25 μl of unmodified antibodies corresponding IL-18 immunocytokines at 5 μg/ml in PBS. Plates are then washed four times with 100 μl of PBS-0.02% Tween20. Plate surfaces are blocked with 25 μl of PBS-0.02% Tween20-1% BSA at 37° C. during 1h. […] Plates are then washed four times with 100 μl of PBS-0.02% Tween20. Twenty-five microliters of Streptavidin-Horseradish peroxidase (#RABHRP3, Merck, Buchs, Switzerland) diluted at 1:500 into PBS-0.02%Tween20-0.1% BSA are added to each well and incubated at Room Temperature during 30 min. Plates are then washed four times with 100 μl of PBS-0.02% Tween20. Fifty microliters of TMB substrate reagent (#CL07, Merck, Buchs, Switzerland) are added to each well and incubated at 37° C. during 5 min. After 5 min at 37° C., Horseradish peroxidase reaction is stopped by adding 50 μl/well of 0.5M H2SO₄ stop solution. ELISA signal is then measured at 450 nm on an ENSPIRE® plate reader from Perkin Elmer (Schwerzenbach, Switzerland).

[3] = target: T3, recombinant biotinylated human FcRn (human, UniProt P55899 24-297; P61769 21-119, limits assumed, biotinylated); test: AlphaLISA competition at pH 6; competitor human IgG acceptor beads
T3 construct: Kit reagent; also called human neonatal Fc receptor
Experimental: The interaction of the unmodified and of conjugated anti-PD1 antibodies with the human neonatal Fc receptor (FcRn) at pH 6 was measured using the AlphaLISA® Human FcRn Binding Kit (AL3095C) from Perkin Elmer (Schwerzenbach, Switzerland).
After 90 min at 23° C. in the dark, AlphaLISA® signal was measured on an EnSpire plate reader (Excitation at 680 nm, Emission at 615 nm) from Perkin Elmer (Schwerzenbach, Switzerland).

[4] = target: T2, Biotinylated Recombinant Human …; test: ELISA: fusion immunocytokine coated on the plate (5 µg/ml), biotinylated human PD-1-Fc titrated (x-axis, Concentration (nM)), streptavidin-HRP/TMB, 450 nm
Experimental: as §1

[5] = target: T3, recombinant biotinylated human FcRn; test: AlphaLISA competition at pH 6: test molecule titrated against human IgG acceptor beads for biotinylated human FcRn on streptavidin donor beads; normalized signal
[6] = target: T3, recombinant biotinylated human FcRn; test: AlphaLISA competition at pH 6: test antibody titrated against human IgG acceptor beads for biotinylated human FcRn on streptavidin donor beads; normalized signal
[7] = target: T1, IL-18R on HEK-Blue IL18R reporter cells; test: cell-based or functional assay; remark: listed apart in the source
[8] = target: T1, IL-18R on HEK-Blue IL18R reporter cells; test: cell-based or functional assay; remark: listed apart in the source
[9] = target: T4, His-tagged human IL-18BP (human, UniProt O95998 31-194, limits assumed); test: AlphaLISA of free IL-18BP: IL-18 analyte titrated in the presence of 5 ng/ml His-tagged human IL-18BP; loss of free IL-18BP signal
T4 construct: also called human IL-18BP-His
T4 sequence (looked up): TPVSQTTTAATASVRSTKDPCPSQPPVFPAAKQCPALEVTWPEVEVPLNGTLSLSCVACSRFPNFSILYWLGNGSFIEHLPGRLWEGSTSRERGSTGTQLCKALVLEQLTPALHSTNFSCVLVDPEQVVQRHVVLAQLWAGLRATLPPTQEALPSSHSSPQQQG

B1: CMP2001 (other)
heavy 1: QVQLVQSGAEVKKPGASVKVSCKASGYTFTSYYMYWVRQAPGQGLEWMGGVNPSNGGTNFNEKFKSRVTITADKSTSTAYMELSSLRSEDTAVYYCARRDYRYDMGFDYWGQGTTVTVSSASTKGPSVFPLAPCSRSTSESTAALGCLVKDYFPEPVTVSWNSGALTSGVHTFPAVLQSSGLYSLSSVVTVPSSSLGTKTYTCNVDHKPSNTKVDKRVESKYGPPCPPCPAPEFLGGPSVFLFPPKPKDTLMISRTPEVTCVVVDVSQEDPEVQFNWYVDGVEVHNAKTKPREEQFNSTYRVVSVLTVLHQDWLNGKEYKCKVSNKGLPSSIEKTISKAKGQPREPQVYTLPPSQEEMTKNQVSLWCLVKGFYPSDIAVEWESNGQPENNYKTTPPVLDSDGSFFLYSRLTVDKSRWQEGNVFSCSVMHEALHNRFTQKSLSLSLGK
heavy 2: QVQLVQSGAEVKKPGASVKVSCKASGYTFTSYYMYWVRQAPGQGLEWMGGVNPSNGGTNFNEKFKSRVTITADKSTSTAYMELSSLRSEDTAVYYCARRDYRYDMGFDYWGQGTTVTVSSASTKGPSVFPLAPCSRSTSESTAALGCLVKDYFPEPVTVSWNSGALTSGVHTFPAVLQSSGLYSLSSVVTVPSSSLGTKTYTCNVDHKPSNTKVDKRVESKYGPPCPPCPAPEFLGGPSVFLFPPKPKDTLMISRTPEVTCVVVDVSQEDPEVQFNWYVDGVEVHNAKTKPREEQFNSTYRVVSVLTVLHQDWLNGKEYKCKVSNKGLPSSIEKTISKAKGQPREPQVYTLPPSQEEMTKNQVSLSCAVKGFYPSDIAVEWESNGQPENNYKTTPPVLDSDGSFFLVSRLTVDKSRWQEGNVFSCSVMHEALHNHYTQKSLSLSLGKGGGGSGGGGSGGGGSYFGKLKSKLSIIRNLNDQVLFIDQGNRPLFEDMTDSDARDNAPRTIFIISMYADSQPRGMAVAISVKCEKISTLSAENKIISFKEMNPPDNIKDTKSDIIFFQRSVPGHDNKMQFESSSYEGYFLAAEKERDLFKLILKKEDELGDRSIMFTVQNED
light: EIVLTQSPATLSLSPGERATISCRASKGVSTSGYSYLHWYQQKPGQAPRLLIYLASYLESGVPARFSGSGSGTDFTLTISSLEPEDFATYYCQHSRELPLTFGTGTKVEIKRTVAAPSVFIFPPSDEQLKSGTASVVCLLNNFYPREAKVQWKVDNALQSGNSQESVTEQDSKDSTYSLSSTLTLSKADYEKHKVYACEVTHQGLSSPVTKSFNRGEC
notes: expressed in CHO K1 cells
IL-18R Hek Blue assay EC50 [1]: > 200 pM
Kd [2]: 38.9 pM
Kd [3]: 12500 pM
EC50 (read off the curve) [4]: ~30 pM
IC50 (read off the curve) [5]: ~10000 pM

B2: Pembrolizumab/Keytruda (antibody, human IgG4 S228P, kappa)
heavy: not shown
light: EIVLTQSPATLSLSPGERATLSCRASKGVSTSGYSYLHWYQQKPGQAPRLLIYLASYLESGVPARFSGSGSGTDFTLTISSLEPEDFAVYYCQHSRDLPLTFGGGTKVEIKRTVAAPSVFIFPPSDEQLKSGTASVVCLLNNFYPREAKVQWKVDNALQSGNSQESVTEQDSKDSTYSLSSTLTLSKADYEKHKVYACEVTHQGLSSPVTKSFNRGEC
notes: also called Lambrolizumab; MK-3475
IC50 (read off the curve) [6]: ~8000 pM

B3: IL-18 polypeptide SEQ ID NO: 30 (E6K, V11I, C38A, K53A, T63A, C76A, C127A) (ligand)
chain: YFGKLKSKLSIIRNLNDQVLFIDQGNRPLFEDMTDSDARDNAPRTIFIISMYADSQPRGMAVAISVKCEKISTLSAENKIISFKEMNPPDNIKDTKSDIIFFQRSVPGHDNKMQFESSSYEGYFLAAEKERDLFKLILKKEDELGDRSIMFTVQNED
notes: also called C086; IL-18 variant
EC50, HEK-Blue IL18R SEAP reporter [7]: 0.034 pM
IL-18R Hek Blue assay EC50 [1]: 0.057 pM
EC50 (read off the curve) [8]: ~0.05 pM
IC50 (read off the curve) [9]: ~9000 pM

B4: IL-18 polypeptide C141 (SEQ ID NO: 71) (ligand)
chain: GYFGKLKSKLSIIRNLNDQVLFIDQGNRPLFEDMTDSDARDNAPRTIFIISMYADSQPRGMAVAISVKCEKISTLSAENKIISFKEMNPPDNIKDTKSDIIFFQRSVPGHDNKMQFESSSYEGYFLAAEKERDLFKLILKKEDELGDRSIMFTVQNED
EC50, HEK-Blue IL18R SEAP reporter [7]: 1.68 pM

B5: IL-18 polypeptide C192 (SEQ ID NO: 70) (ligand)
chain: GYFGKLKSKLSIIRNLNDQVLFIDQGNRPLFEDMTDSDARDNAPRTIFIISGYADSQPRGMAVAISVKCEKISTLSAENKIISFKEMNPPDNIKDTKSDIIFFQRSVPGHDNKMQFESSSYEGYFLAAEKERDLFKLILKKEDELGDRSIMFTVQNED
EC50, HEK-Blue IL18R SEAP reporter [7]: 14 pM
